Data taken from paper PMC9063426, “MAP kinases differentially bind and phosphorylate NOS3 via two unique NOS3 sites” (FEBS Open Bio, 2022).

What was measured:
[1] = target: NOS3 AI peptide (autoinhibitory loop site), biotinylated (human); assay: BLI; N-terminally biotinylated NOS3 peptides on streptavidin sensors, inactive MAP kinases as analytes (31 to 1000 nM); 25 °C; PBS with 10% glycerol, 0.005% tween, 1 mM DTT; global one-state association-then-dissociation fit
[2] = target: NOS3 NtMAP peptide (N-terminal MAP kinase site), biotinylated (human); assay: as above
[3] = target: AI peptide (NOS3 autoinhibitory loop site) (human); assay: BLI; N-terminally biotinylated NOS3 peptides on streptavidin sensors, inactive MAP kinases as analytes at 31-1000 nM; 25 °C; PBS with 10% glycerol, 0.005% tween, 1 mM DTT; global one-state association-then-dissociation fit
[4] = target: NtMAP peptide (NOS3 N-terminal MAP kinase site) (human); assay: as above
ERK2 = ERK2 (UniProt P63086); assay: BLI, biotinylated peptide on streptavidin sensor

Row | Substance | koff [1] | kon [1] | koff [2] | kon [2] | Kd [3] | koff [3] | kon [3] | Kd [4] | koff [4] | kon [4] | KD (ERK2; reference: unphosphorylated AI peptide, sites S633) | KD (ERK2; reference: unphosphorylated NtMAP peptide, sites S114)
1 | ERK2, inactive (unphosphorylated), His-purified (from UniProt P63086 1-358) (enzyme) | 0.00207 s⁻¹ | 12100 M⁻¹ s⁻¹ | 0.00623 s⁻¹ | 6600 M⁻¹ s⁻¹ | 170 nM | 0.002 s⁻¹ | 12000 M⁻¹ s⁻¹ | 940 nM | 0.062 s⁻¹ | 6600 M⁻¹ s⁻¹ |  | 
2 | NOS3 (eNOS) autoinhibitory (AI) loop site (from UniProt P29474) AI pS633 peptide |  |  |  |  |  |  |  |  |  |  | lost; reference 170 | 
3 | GST-JNK1α1, inactive (unphosphorylated), made in house (from UniProt P45983-2 1-384) (enzyme) | 0.00025 s⁻¹ | 84600 M⁻¹ s⁻¹ | 0.000543 s⁻¹ | 14100 M⁻¹ s⁻¹ | 3 nM |  | 84000 M⁻¹ s⁻¹ | 38 nM | 0.00054 s⁻¹ | 14000 M⁻¹ s⁻¹ |  | 
4 | NOS3 (eNOS) NtMAP site (from UniProt P29474) NtMAP pS114 peptide |  |  |  |  |  |  |  |  |  |  |  | lost; reference 940
